Values quoted from earlier work in paper PMC7585440.

Experiments:
LRP6 E1E2 (Homo sapiens) = LRP6 E1E2 (Homo sapiens) (UniProt O75581); test: biolayer interferometry
LRP6 E1 (Homo sapiens) = LRP6 E1 (Homo sapiens) (UniProt O75581); test: ITC
Sequence of LRP6 E1 (Homo sapiens) (O75581 20-326): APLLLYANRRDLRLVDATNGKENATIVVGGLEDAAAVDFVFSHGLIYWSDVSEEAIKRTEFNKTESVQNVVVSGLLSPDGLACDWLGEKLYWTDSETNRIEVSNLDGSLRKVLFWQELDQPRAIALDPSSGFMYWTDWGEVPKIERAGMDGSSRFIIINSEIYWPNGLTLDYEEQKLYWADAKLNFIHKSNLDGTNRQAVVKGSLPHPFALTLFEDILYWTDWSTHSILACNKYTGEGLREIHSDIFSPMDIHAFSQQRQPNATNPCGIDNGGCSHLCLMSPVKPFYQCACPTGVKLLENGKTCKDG

Sequence of LRP6 E1E2 (Homo sapiens) (O75581 20-630): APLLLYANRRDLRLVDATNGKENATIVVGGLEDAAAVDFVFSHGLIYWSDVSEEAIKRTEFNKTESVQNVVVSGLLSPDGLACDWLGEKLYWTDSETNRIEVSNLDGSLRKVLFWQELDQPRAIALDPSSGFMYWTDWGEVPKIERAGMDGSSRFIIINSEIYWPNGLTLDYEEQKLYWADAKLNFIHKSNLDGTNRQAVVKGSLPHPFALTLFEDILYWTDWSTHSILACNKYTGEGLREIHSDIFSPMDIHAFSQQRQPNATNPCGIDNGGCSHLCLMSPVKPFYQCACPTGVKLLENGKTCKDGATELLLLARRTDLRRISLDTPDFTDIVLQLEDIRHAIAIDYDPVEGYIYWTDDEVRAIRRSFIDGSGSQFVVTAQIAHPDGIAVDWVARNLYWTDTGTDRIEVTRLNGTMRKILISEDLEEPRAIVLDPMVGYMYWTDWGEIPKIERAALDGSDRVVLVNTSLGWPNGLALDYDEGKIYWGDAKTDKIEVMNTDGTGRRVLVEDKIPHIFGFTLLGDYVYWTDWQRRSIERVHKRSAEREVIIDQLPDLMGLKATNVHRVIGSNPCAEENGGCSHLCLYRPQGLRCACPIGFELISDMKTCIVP
Sequence of SOST loop 2 peptide loop 2 (Q9BQB4 110-130): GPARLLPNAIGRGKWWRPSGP
Sequence of SOST (Q9BQB4 24-213): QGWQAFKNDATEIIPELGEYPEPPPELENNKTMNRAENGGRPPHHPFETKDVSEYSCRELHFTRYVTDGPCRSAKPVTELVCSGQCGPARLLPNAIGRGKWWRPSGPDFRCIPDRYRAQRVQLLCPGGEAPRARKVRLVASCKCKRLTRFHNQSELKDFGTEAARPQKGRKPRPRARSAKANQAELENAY

Row | Kd (LRP6 E1E2 (Homo sapiens)) [µM] | Kd (LRP6 E1 (Homo sapiens)) [µM] | Substance
1 | 0.0068 |  | SOST (from UniProt Q9BQB4)
2 |  | 9 | SOST loop 2 peptide loop 2 (from UniProt Q9BQB4)
